This note sets out measurements from publication PMC10013841.

As usually defined, the EC50 is the concentration that produces a half-maximal response. A lower EC50 goes with higher potency in that assay. The Kd is the free concentration of one partner at which half of the binding sites on the other are occupied at equilibrium, for simple one-to-one binding.

The target in test [1] is SARS-CoV-2 Spike glycoprotein (WH-1), trimeric, HEK293-produced (S1+S2) (SARS-CoV-2) (UniProt P0DTC2). Kind of test: ELISA. A general note: An ELISA detects its analyte on a solid surface through an enzyme-linked reagent.
The target of test [2] is baculovirus-produced trimeric Spike (SARS-CoV-2) (UniProt P0DTC2). Kind of test: ITC.
The target in test [3] is SARS-CoV-2 Spike glycoprotein (WH-1), trimeric, HEK293-produced (S1+S2) (SARS-CoV-2) (UniProt P0DTC2). The test is described as follows: ITC. Background: Isothermal titration calorimetry measures the heat released or taken up as one component is titrated into another.
For test [4], the target named is SARS-CoV-2 Spike glycoprotein (Omicron), trimeric, HEK293-produced (SARS-CoV-2) (UniProt P0DTC2). The test is described as follows: ITC.

cyanovirin-N, sequence (P81180 whole entry): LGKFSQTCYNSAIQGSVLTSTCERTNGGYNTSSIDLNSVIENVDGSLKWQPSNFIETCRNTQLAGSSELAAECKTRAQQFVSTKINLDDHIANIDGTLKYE

In test [1], “cyanovirin-N (from UniProt P81180 1-101) (natural protein)” returned a 50% effective concentration (EC50) of 2.9 nM. For the same substance, the Kd is 13.4 nM in test [2], 28.1 nM in test [3] and 15.4 nM in test [4]. The stoichiometry N (CV-N per Spike monomer) was 2.4 in test [2], 2 in test [3] and 2 in test [4].
